Experiments:
[1] = biological target: SNT, residues 1–215 of the HsdS (specificity) subunit of EcoR124I (UniProt P10485); test: AUC; sedimentation velocity of SNT alone at 25 μM; 30,000 rpm, 10 °C, buffer A (10 mM Tris–HCl, pH 8.0, 100 mM NaCl, 1 mM Na2EDTA), 280 nm; c(s)/c(M) analysis with SEDFIT
[2] = biological target: M.EcoR124INT methyltransferase (hetero-tetramer of two SNT and two M subunits) (UniProt P10485)
[3] = biological target: SNT, residues 1–215 of the HsdS (specificity) subunit of EcoR124I (UniProt P10485); test: AUC; sedimentation velocity of reconstituted M.EcoR124INT at 2.6 μM; 30,000 rpm, 10 °C, buffer A, 280 nm; c(s)/c(M) analysis with SEDFIT
[4] = biological target: SNT, residues 1–215 of the HsdS (specificity) subunit of EcoR124I (UniProt P10485); test: AUC; sedimentation equilibrium of reconstituted M.EcoR124INT at 2.5 to 8.8 μM; 6500 rpm and 8500 rpm, 276 nm, global fit to a single ideal species model

SNT, residues 1–215 of the HsdS (specificity) subunit of EcoR124I (from UniProt P10485 1-215) (domain or fragment)
stoichiometry N [1]: 2

B1: ocr (“overcome classical restriction”) protein (natural protein)
chain: MAMSNMTYNNVFDHAYEMLKENIRYDDIRDTDDLHDAIHMAADNAVPHYYADIFSVMASEGIDLEFEDSGLMPDTKDVIRILQARIYEQLTIDLWEDAEDLLNEYLEEVEEYEEDEE
inhibition of in vitro DNA methylation by M.EcoR124INT (EcoRI protection assay; 50 nM MTase, 50 nM ocr dimer incubated with the MTase before DNA, 37 °C, 10 mM MgCl2) [2]: 50%

B2: M subunit (HsdM) of EcoR124I (natural protein)
chain: MKMTSIQQRAELHRQIWQIANDVRGSVDGWDFKQYVLGALFYRFISENFSSYIEAGDDSICYAKLDDSVITDDIKDDAIKTKGYFIYPSQLFCNVAAKANTNDRLNADLNSIFVAIESSAYGYPSEADIKGLFADFDTTSNRLGNTVKDKNARLAAVLKGVEGLKLGDFNEHQIDLFGDAYEFLISNYAANAGKSGGEFFTPQHVSKLIAQLAMHGQTHVNKIYDPAAGSGSLLLQAKKQFDNHIIEEGFFGQEINHTTYNLARMNMFLHNINYDKFDIKLGNTLTEPHFRDEKPFDAIVSNPPYSVKWIGSDDPTLINDERFAPAGVLAPKSKADFAFVLHALNYLSAKGRAAIVCFPGIFYRGGAEQKIRQYLVDNNYVETVISLAPNLFFGTTIAVNILVLSKHKTDTNVQFIDASELFKKETNNNILTDAHIEQIMQVFASKEDVAHLAKSVAFETVVANDYNLSVSSYVEAKDNREIIDIAELNAELKTTVSKIDQLRKDIDAIVAEIEGCEVQK
stoichiometry N (M per SNT (2:2 hetero-tetramer)) [3]: 1 | stoichiometry N (M per SNT (2:2 hetero-tetramer)) [4]: 1
